Reference: paper PMC4899274

Target: triplex subunit VP23 (HSV-1) (human herpes simplex virus type 1 (HSV-1), strain KOS) (UniProt P10202)
Experiment: cryo-EM structure

triplex subunit VP23 (HSV-1) (from UniProt P10202 1-318) (natural protein)
stoichiometry N: 2
